One data set concerns biotinyl-Phe-oxazolone. Nature of the data set: self-aminoacylation, catalytic enhancement (BFO) (fold over background); higher = more active; k-Seq, kA / k0A0; sequences stand for … in GGGAAUGGAUCCACAUCUACGAAUUC…UUCACUGCAGACUUGACGAAGCUG
In outline:
(§1)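 Each biotinyl-aminoacyl-oxazolone, at 2–1250 μM, was incubated with mutagenized RNA pools (0.43 μM) carrying a 21-nt variable region. The 50 μL reactions contained HEPES/NaCl/KCl/MgCl2/CaCl2 buffer with 5% acetonitrile at pH 6.9–7.0 and ran for 90 minutes at room temperature. After streptavidin capture, RNA was measured by qPCR in triplicate and by Illumina sequencing, and catalytic enhancement was calculated as median kA over the uncatalyzed rate from a pseudo-first-order fit of per-sequence fraction reacted.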

The next data set concerns biotinyl-Ile-oxazolone. As to the kind of experiment: self-aminoacylation, catalytic enhancement (BIO) (fold over background); higher = more active; k-Seq, kA / k0A0; sequences stand for … in GGGAAUGGAUCCACAUCUACGAAUUC…UUCACUGCAGACUUGACGAAGCUG
In outline:
as §1

The next data set has as its system biotinyl-Met-oxazolone. Nature of the data set: self-aminoacylation, catalytic enhancement (BMO) (fold over background); higher = more active; k-Seq, kA / k0A0; sequences stand for … in GGGAAUGGAUCCACAUCUACGAAUUC…UUCACUGCAGACUUGACGAAGCUG
In outline:
as §1

The next data set relates to biotinyl-Val-oxazolone. Nature of the data set: self-aminoacylation, catalytic enhancement (BVO) (fold over background); higher = more active; k-Seq, kA / k0A0; sequences stand for … in GGGAAUGGAUCCACAUCUACGAAUUC…UUCACUGCAGACUUGACGAAGCUG
In outline:
as §1

Another data set relates to biotinyl-Leu-oxazolone. As to the kind of experiment: self-aminoacylation, catalytic enhancement (BLO) (fold over background); higher = more active; k-Seq, kA / k0A0; sequences stand for … in GGGAAUGGAUCCACAUCUACGAAUUC…UUCACUGCAGACUUGACGAAGCUG
In outline:
as §1

A further data set concerns biotinyl-Trp-oxazolone. Nature of the data set: self-aminoacylation, catalytic enhancement (BWO) (fold over background); higher = more active; k-Seq, kA / k0A0; sequences stand for … in GGGAAUGGAUCCACAUCUACGAAUUC…UUCACUGCAGACUUGACGAAGCUG
In outline:
as §1

In the supplement of paper PMC9233669 one finds self-aminoacylation data, which are given here for 23 sequences.

Variants at the floor of the assay were thinned out.

As for “AUUCACCUAGGUCCCCGGGUG [Fam2.2 aminoacylation ribozyme variant]”, the self-aminoacylation with biotinyl-Phe-oxazolone came out at 58.4; with biotinyl-Ile-oxazolone, 5.12; with biotinyl-Met-oxazolone it was 8.22; in the data set on biotinyl-Val-oxazolone, 4.54; in the data set with biotinyl-Leu-oxazolone it was 9.96; with biotinyl-Trp-oxazolone, 7.84.

Take “AUACUUCAAACAAUCGGACUG [Fam1A.1 aminoacylation ribozyme variant]”: the self-aminoacylation in the data set with biotinyl-Phe-oxazolone worked out at 3.32; in the data set on biotinyl-Ile-oxazolone it was 0.748; in the data set with biotinyl-Met-oxazolone, 0.548; in the data set with biotinyl-Val-oxazolone, 0.666; with biotinyl-Leu-oxazolone, 0.522; in the data set on biotinyl-Trp-oxazolone, 2.34.

With “AUUCACCUAGGGCAUAGGGUG [Fam2.2 aminoacylation ribozyme variant]”, the self-aminoacylation with biotinyl-Phe-oxazolone was 38.6; with biotinyl-Ile-oxazolone it was 3.22; in the data set on biotinyl-Met-oxazolone, 4.74; in the data set on biotinyl-Val-oxazolone it was 2.76; with biotinyl-Leu-oxazolone, 6.33; in the data set on biotinyl-Trp-oxazolone, 4.16.

Consider “AUACACAUAGGUCAUCGGGUG [Fam2.2 aminoacylation ribozyme variant]”, for which the self-aminoacylation was 40.3 in the data set on biotinyl-Phe-oxazolone; 3.69 in the data set with biotinyl-Ile-oxazolone; 5.61 in the data set with biotinyl-Met-oxazolone; 3.83 in the data set with biotinyl-Val-oxazolone; 6.21 in the data set with biotinyl-Leu-oxazolone; 6.66 in the data set with biotinyl-Trp-oxazolone.

“AUUACCCUGGUCCUUGAGUGA [Fam2.1 aminoacylation ribozyme variant]”: the self-aminoacylation with biotinyl-Phe-oxazolone amounted to 56.2; in the data set on biotinyl-Ile-oxazolone, 3.86; in the data set with biotinyl-Met-oxazolone it was 8.05; in the data set with biotinyl-Val-oxazolone, 3.86; in the data set with biotinyl-Leu-oxazolone, 8.35; in the data set on biotinyl-Trp-oxazolone it was 9.98.

For “AAGUUUGCUAACAGUCGCAUG [Fam3.1 aminoacylation ribozyme variant]”, the self-aminoacylation was 0.642 in the data set with biotinyl-Phe-oxazolone; 0.963 with biotinyl-Ile-oxazolone; 0.804 with biotinyl-Met-oxazolone; 0.899 in the data set with biotinyl-Val-oxazolone; 0.89 with biotinyl-Leu-oxazolone; 1.11 in the data set with biotinyl-Trp-oxazolone.

Turning to “AGUCACCUAGGUGAUCGGGUG [Fam2.2 aminoacylation ribozyme variant]”, the self-aminoacylation with biotinyl-Phe-oxazolone is 24.3; with biotinyl-Ile-oxazolone it was 4.34; in the data set with biotinyl-Met-oxazolone, 4.24; in the data set on biotinyl-Val-oxazolone, 4.38; in the data set on biotinyl-Leu-oxazolone, 5.45; in the data set on biotinyl-Trp-oxazolone, 6.05.

On to “CUACUUCAAACUAUCCGUCUG [Fam1A.1 aminoacylation ribozyme variant]”, for which the self-aminoacylation with biotinyl-Phe-oxazolone was 0.844; with biotinyl-Ile-oxazolone it was 0.955; with biotinyl-Met-oxazolone, 0.889; with biotinyl-Val-oxazolone, 1.08; in the data set on biotinyl-Leu-oxazolone, 0.936; in the data set on biotinyl-Trp-oxazolone it was 0.852.

Regarding “AGUUCCCUGGUCAUCGAGUGA [Fam2.1 aminoacylation ribozyme variant]”, the self-aminoacylation in the data set with biotinyl-Phe-oxazolone is 43.9; in the data set with biotinyl-Ile-oxazolone it was 4.54; in the data set with biotinyl-Met-oxazolone, 7.95; in the data set on biotinyl-Val-oxazolone it was 5; in the data set with biotinyl-Leu-oxazolone, 9.8; in the data set on biotinyl-Trp-oxazolone it was 10.9.

Take “CUACUUCAAACCAUGGGUCUG [Fam1A.1 aminoacylation ribozyme variant]”: the self-aminoacylation in the data set on biotinyl-Phe-oxazolone amounted to 0.455; in the data set on biotinyl-Ile-oxazolone, 0.966; in the data set on biotinyl-Met-oxazolone, 0.765; in the data set with biotinyl-Val-oxazolone, 0.776; in the data set with biotinyl-Leu-oxazolone it was 0.827; in the data set with biotinyl-Trp-oxazolone, 0.564.

As for “CCACACUUCACGCAGUCGGUC [Fam1B.1 aminoacylation ribozyme variant]”, the self-aminoacylation in the data set on biotinyl-Phe-oxazolone worked out at 0.859; in the data set on biotinyl-Ile-oxazolone, 1.13; with biotinyl-Met-oxazolone it was 0.94; in the data set on biotinyl-Val-oxazolone it was 1.47; with biotinyl-Leu-oxazolone, 1.31; in the data set with biotinyl-Trp-oxazolone it was 0.719.

For the sequence “AAGUUUGCUACUAGUCGCACG [Fam3.1 aminoacylation ribozyme variant]”, the self-aminoacylation is 1.28 in the data set on biotinyl-Phe-oxazolone; 0.967 in the data set with biotinyl-Ile-oxazolone; 1.02 with biotinyl-Met-oxazolone; 0.846 with biotinyl-Val-oxazolone; 1.1 in the data set with biotinyl-Leu-oxazolone; 1.73 with biotinyl-Trp-oxazolone.

Turning to “AUUACCCUGGUCACCGAGCGA [Fam2.1 aminoacylation ribozyme variant]”, the self-aminoacylation in the data set on biotinyl-Phe-oxazolone worked out at 0.94; in the data set on biotinyl-Ile-oxazolone it was 1.16; with biotinyl-Met-oxazolone it was 2.08; with biotinyl-Val-oxazolone it was 1.25; in the data set on biotinyl-Leu-oxazolone, 1.54; with biotinyl-Trp-oxazolone, 0.843.

Take “AAUACCCUGGUCAUCGAGUGU [Fam2.1 aminoacylation ribozyme variant]”: the self-aminoacylation worked out at 20.5 in the data set on biotinyl-Phe-oxazolone; 3.84 with biotinyl-Ile-oxazolone; 8.79 with biotinyl-Met-oxazolone; 4.56 in the data set on biotinyl-Val-oxazolone; 7.95 with biotinyl-Leu-oxazolone; 8.44 in the data set with biotinyl-Trp-oxazolone.

For the sequence “AUUGACCUAGGUCAUCGGGUG [Fam2.2 aminoacylation ribozyme variant]”, the self-aminoacylation is 337 in the data set with biotinyl-Phe-oxazolone; 20.6 in the data set with biotinyl-Ile-oxazolone; 43.8 with biotinyl-Met-oxazolone; 17.4 in the data set with biotinyl-Val-oxazolone; 58.8 with biotinyl-Leu-oxazolone; 31.1 with biotinyl-Trp-oxazolone.

On to “CUACUCCAAACGAUCGGUCUG [Fam1A.1 aminoacylation ribozyme variant]”, for which the self-aminoacylation was found to be 0.979 in the data set on biotinyl-Phe-oxazolone; 0.854 with biotinyl-Ile-oxazolone; 0.643 with biotinyl-Met-oxazolone; 0.812 with biotinyl-Val-oxazolone; 0.91 with biotinyl-Leu-oxazolone; 0.445 with biotinyl-Trp-oxazolone.

Take “AUUCACCAACGUCAUCGGGUG [Fam2.2 aminoacylation ribozyme variant]”: the self-aminoacylation in the data set on biotinyl-Phe-oxazolone amounted to 74; with biotinyl-Ile-oxazolone, 5.28; with biotinyl-Met-oxazolone, 8.41; in the data set with biotinyl-Val-oxazolone, 5.26; in the data set with biotinyl-Leu-oxazolone, 11.8; with biotinyl-Trp-oxazolone, 7.38.

For “AAGUUUUCUAAUGGUCGCAAG [Fam3.1 aminoacylation ribozyme variant]”, the self-aminoacylation with biotinyl-Phe-oxazolone was 2.21; in the data set on biotinyl-Ile-oxazolone, 1.67; in the data set on biotinyl-Met-oxazolone, 1.21; in the data set on biotinyl-Val-oxazolone it was 1.38; with biotinyl-Leu-oxazolone, 1.6; with biotinyl-Trp-oxazolone, 1.68.

Turning to “AAGUUUGCUAAGAGUCUCAAG [Fam3.1 aminoacylation ribozyme variant]”, the self-aminoacylation in the data set on biotinyl-Phe-oxazolone was 1.02; in the data set with biotinyl-Ile-oxazolone, 0.81; in the data set with biotinyl-Met-oxazolone, 0.651; with biotinyl-Val-oxazolone it was 0.823; with biotinyl-Leu-oxazolone, 0.775; with biotinyl-Trp-oxazolone, 1.01.

“AAGUUUGCUAAUAGUCGCAGA [Fam3.1 aminoacylation ribozyme variant]”: the self-aminoacylation worked out at 1.77 with biotinyl-Phe-oxazolone; 1.54 in the data set with biotinyl-Ile-oxazolone; 1.03 with biotinyl-Met-oxazolone; 0.914 in the data set with biotinyl-Val-oxazolone; 1.12 with biotinyl-Leu-oxazolone; 0.729 in the data set with biotinyl-Trp-oxazolone.

As to “CUACUUCAAACUAUCGGUCUC [Fam1A.1 aminoacylation ribozyme variant]”, the self-aminoacylation in the data set with biotinyl-Phe-oxazolone came to 1.19; in the data set on biotinyl-Ile-oxazolone, 0.833; in the data set on biotinyl-Met-oxazolone, 0.747; in the data set with biotinyl-Val-oxazolone it was 0.885; with biotinyl-Leu-oxazolone it was 0.759; with biotinyl-Trp-oxazolone, 0.598.

For “CCACGCUUCCAGCAAUCGGUC [Fam1B.1 aminoacylation ribozyme variant]”, the self-aminoacylation in the data set with biotinyl-Phe-oxazolone was 0.836; in the data set with biotinyl-Ile-oxazolone, 1.11; with biotinyl-Met-oxazolone, 0.936; with biotinyl-Val-oxazolone, 1.11; in the data set with biotinyl-Leu-oxazolone it was 1.05; with biotinyl-Trp-oxazolone, 1.12.

In the case of “AAGUUUGCUAAGAGUCCCAAG [Fam3.1 aminoacylation ribozyme variant]”, the self-aminoacylation with biotinyl-Phe-oxazolone was determined as 1.48; in the data set on biotinyl-Ile-oxazolone, 0.788; with biotinyl-Met-oxazolone, 0.787; in the data set with biotinyl-Val-oxazolone, 0.672; in the data set with biotinyl-Leu-oxazolone, 0.765; with biotinyl-Trp-oxazolone it was 1.
